Experiments:
[1] = target: Triosephosphate isomerase from G. gallus (G. gallus) (UniProt P00940); assay: NMR titration; 2.5 μM [U-15N]-TPI with 5 mM DHAP, titrated with 0-30 μM ribosomes; integrated amide proton envelope (6.30-10.54 ppm) of 1H-15N HSQC; 10 mM sodium phosphate pH 7.5, 0.1 M NaCl, 290 K; apparent Kd from the total binding equation with a nonspecific term; the paper calls it an upper limit to Kd
[2] = target: Triosephosphate isomerase from G. gallus (G. gallus) (UniProt P00940); assay: NMR titration; 2.5 μM [U-15N]-TPI with 1 mM GAP, titrated with 0-30 μM ribosomes; integrated amide proton envelope (6.30-10.54 ppm) of 1H-15N HSQC; 10 mM sodium phosphate pH 7.5, 0.1 M NaCl, 290 K; apparent Kd from the total binding equation with a nonspecific term; the paper calls it an upper limit to Kd

Sequence of Triosephosphate isomerase from G. gallus (G. gallus) (P00940 whole entry): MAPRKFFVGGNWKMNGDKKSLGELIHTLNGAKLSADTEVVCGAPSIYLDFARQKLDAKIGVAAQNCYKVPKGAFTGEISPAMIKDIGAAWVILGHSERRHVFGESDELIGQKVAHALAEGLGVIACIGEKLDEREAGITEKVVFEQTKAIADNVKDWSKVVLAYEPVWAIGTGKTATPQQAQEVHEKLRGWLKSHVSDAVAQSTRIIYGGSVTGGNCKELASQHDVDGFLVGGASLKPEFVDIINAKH

- Kd [1]: 1.05 µM
- Kd [2]: 1.21 µM
Substance: Intact 70S ribosomes from E. coli MRE600 (from UniProt P0A7K2 1-121; P0A7R1 1-149; P0A7J3 1-165; P0A7J7 1-142; P02413 1-144; P0C018 1-117; P0A7L3 1-118; P61175 1-110; P0AG67 1-557; P02358 1-135; P0A7W7 1-130; P0A7R9 1-129) (complex)

— paper PMC11284791
